From patent publication US11472877 (Alector, dated 2022)
Where a chain is given by its changes, count along the chain named.

T1: human TREM2 on BWZ cells (human, UniProt Q9NZC2 19-230)
T1 construct: whole, on cells; not tied to the cell line; also called BWZ Human TREM2
T1 sequence (looked up): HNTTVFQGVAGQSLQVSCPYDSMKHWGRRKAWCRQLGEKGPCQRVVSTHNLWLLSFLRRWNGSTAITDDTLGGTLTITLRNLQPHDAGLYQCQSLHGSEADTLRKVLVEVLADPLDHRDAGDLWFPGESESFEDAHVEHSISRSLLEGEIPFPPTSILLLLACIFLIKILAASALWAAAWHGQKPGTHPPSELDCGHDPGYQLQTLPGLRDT

T2: mouse TREM2 on BWZ cells (mouse, UniProt Q99NH8 19-227)
T2 construct: whole, on cells; also called BWZ Mouse TREM2
T2 sequence (looked up): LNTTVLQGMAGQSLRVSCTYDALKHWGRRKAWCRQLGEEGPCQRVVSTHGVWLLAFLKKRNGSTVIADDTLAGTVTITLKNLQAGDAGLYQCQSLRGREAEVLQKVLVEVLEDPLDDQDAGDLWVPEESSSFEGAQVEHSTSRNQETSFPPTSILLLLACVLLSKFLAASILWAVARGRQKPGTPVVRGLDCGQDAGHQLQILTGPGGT

B1: T1-59 (antibody, IgG1, V domains shown)
VH: QVQLQESGPGLVKPSETLSLTCAVSGYSISSGYYWAWIRQPPGKGLEWIGSIYHSGSTYYNPSLKSRVTISVDTSKNQFSLKLSSVTAADTAVYYCARDLGGYEGAFDPWGQGTLVTVSS
VL: not shown
notes: huIgG1; also called TI-59; ADI-19135
B2: T1-63 (antibody, IgG1, V domains shown)
VH: QVQLQESGPGLVKPSETLSLTCAVSGYSISSGYYWGWIRQPPGKGLEWIGSIYHSGNTYYNPSLKSRVTISVDTSKNQFSLKLSSVTAADTAVYYCARELYAYSSPMFYGMDVWGRGTTVTVSS
VL: DIQMTQSPSSLSASVGDRVTITCRASQSISRYLNWYQQKPGKAPKLLIYAASSLQSGVPSRFSGSGSGTDFTLTISSLQPEDFATYYCQQLYHAPPITFGGGTKVEIK
notes: huIgG1; also called TI-63; ADI-19139
B3: T1-68 (antibody, IgG1, V domains shown)
VH: EVQLVQSGAEVKKPGESLKISCKGSGYSFTTYWIGWVRQMPGKGLEWMGIIYPGDSDTRYSPSFQGQVTISADKSISTAYLQWSSLKASDTAMYYCARGSPWDGRLFDIWGQGTMVTVSS
VL: EIVLTQSPATLSLSPGERATLSCRASQSVSSYLAWYQQKPGQAPRLLIYDASNRATGIPARFSGSGSGTDFTLTISSLEPEDFAVYYCQQFDNLPYTFGGGTKVEIK
notes: huIgG1; also called TI-68; ADI-19144
B4: T1-65 (antibody, IgG1, V domains shown)
VH: QLQLQESGPGLVKPSETLSLTCTVSGGSISSSDYYWGWIRQPPGKGLEWIGSIYYSGSTYYNPSLKSRVTISVDTSKNQFSLKLSSVTAADTAVYYCARDSGQYTGSLDVWGQGTMVTVSS
VL: not shown
notes: huIgG1; also called TI-65; ADI-19141
B5: T1-61 (antibody, IgG1, V domains shown)
VH: QVQLQESGPGLVKPSETLSLTCAVSGYSISSGYYWGWIRQPPGKGLEWIGSIYHSGSTYYNPSLKSRVTISVDTSKNQFSLKLSSVTAADTAVYYCARHDDYLSSFDPWGQGTLVTVSS
VL: not shown
notes: huIgG1; also called TI-61; ADI-19137
B6: T1-64 (antibody, IgG1, V domains shown)
VH: QLQLQESGPGLVKPSETLSLTCTVSGGSISSSSYYWGWIRQPPGKGLEWIGSISYSGSTYYNPSLKSRVTISVDTSKNQFSLKLSSVTAADTAVYYCARYYSPYGMDVWGQGTTVTVSS
VL: not shown
notes: huIgG1; also called TI-64; ADI-19140
B7: T1-56 (antibody, IgG1, V domains shown)
VH: EVQLVESGGGLVQPGRSLRLSCAASGFTFDDYAMHWVRQAPGKGLEWVSGISWNSGSIGYADSVKGRFTISRDNAKNSLYLQMNSLRAEDTALYYCAKGPRLLGYFDLWGRGTLVTVSS
VL: not shown
notes: huIgG1; also called TI-56; ADI-19131
B8: T1-71 (antibody, IgG1, V domains shown)
VH: B7 VH with D30G, L102R, L103T, G104S, Y105H, F106L, L108I, R111Q, L114M
VL: DIQMTQSPSSVSASVGDRVTITCRASQGIDSWLAWYQQKPGKAPKLLIYAASSLQSGVPSRFSGSGSGTDFTLTISSLQPEDFATYYCQQATSLPLTFGGGTKVEIK
notes: huIgG1; also called TI-71; ADI-19147
B9: T1-73 (antibody, IgG1, V domains shown)
VH: B7 VH with G99A, L102M, L103Y, L114S
VL: DIQMTQSPSTLSASVGDRVTITCRASQSISSWLAWYQQKPGKAPKLLIYKASSLESGVPSRFSGSGSGTEFTLTISSLQPDDFATYYCQQYRTYPTFGGGTKVEIK
notes: huIgG1; also called TI-73; ADI-19149
B10: T1-74 (antibody, IgG1, V domains shown)
VH: B7 VH with L102T, L103R
VL: DIQMTQSPSTLSASVGDRVTITCRASQSISSWLAWYQQKPGKAPKLLIYKASSLESGVPSRFSGSGSGTEFTLTISSLQPDDFATYYCQQHSLLSITFGGGTKVEIK
notes: huIgG1; also called TI-74; ADI-19151
B11: T1-67 (antibody, IgG1, V domains shown)
VH: QVQLVQSGAEVKKPGASVKVSCKASGYTFTSYGIHWVRQAPGQGLEWMGWISAYNGNTNYAQKLQGRVTMTTDTSTSTAYMELRSLRSDDTAVYYCARGRPSSSWGNWFDPWGQGTTVTVSS
VL: EIVLTQSPGTLSLSPGERATLSCRASQSVSSSFLAWYQQKPGQAPRLLIYGASSRATGIPDRFSGSGSGTDFTLTISRLEPEDFAVYYCQQAVSLPWTFGGGTKVEIK
notes: huIgG1; also called TI-67; ADI-19143
B12: T1-57 (antibody, IgG1, V domains shown)
VH: EVQLVESGGGLVQPGRSLRLSCAASGFTFDDYAMHWVRQAPGKGLEWVSGITWNSGSIGYADSVKGRFTISRDNAKNSLYLQMNSLRAEDTALYYCAKGPRYSKPYFDYWGQGTLVTVSS
VL: B8 VL with A91R, T92A, S93V, L94F, L96P
notes: huIgG1; also called TI-57; ADI-19132
B13: T1-70 (antibody, IgG1, V domains shown)
VH: QVQLVQSGAEVKKPGASVKVSCKASGYTFTSYGIHWVRQAPGQGLEWMGWISAYNGNTNYAQKLQGRVTMTTDTSTSTAYMELRSLRSDDTAVYYCARAGTIYGRLDLWGRGTLVTVSS
VL: B8 VL with M4L, G28D, D30S, T92V, L94H
notes: huIgG1; also called TI-70; ADI-19146
B14: T1-69 (antibody, IgG1, V domains shown)
VH: QVQLVQSGAEVKKPGASVKVSCKASGYTFTSYGISWVRQAPGQGLEWMGWISAYNGNTNYAQKLQGRVTMTTDTSTSTAYMELRSLRSDDTAVYYCARGAGMYDGSPLGMDVWGQGTTVTVSS
VL: B8 VL with D30S, S53N, S93A, L94H, L96P
notes: huIgG1; also called TI-69; ADI-19145
B15: T1-72 (antibody, IgG1, V domains shown)
VH: B12 VH with T52S, S57D, Y102M, S103T, K104H, P105S, Y109L, Q112R
VL: not shown
notes: huIgG1; also called TI-72; ADI-19148
B16: T1-53 (antibody, IgG1, V domains shown)
VH: QVQLVQSGAEVKKPGASVKVSCKASGYTFTSYYIHWVRQAPGQGLEWMGIINPSGGSTSYAQKFQGRVTMTRDTSTSTVYMELSSLRSEDTAVYYCARESGYHVSTAFDIWGQGTMVTVSS
VL: not shown
notes: huIgG1; also called TI-53; ADI-19128
B17: T1-55 (antibody, IgG1, V domains shown)
VH: QVQLVQSGAEVKKPGASVKVSCKASGYTFTSYYMHWVRQAPGQGLEWMGVINPSGGSTSYAQKFQGRVTMTRDTSTSTVYMELSSLRSEDTAVYYCARGADYYAGFDYWGQGTLVTVSS
VL: not shown
notes: huIgG1; also called TI-55; ADI-19130

These binders were tested against T1, human TREM2 on BWZ cells (assay: FACS, BWZ cells).

Binding result, no binding:
B1
B2
B3
B4
B5
B6
B7
B8
B9
B10
B11
B12
B13
B14
B15
B16
B17

These binders were tested against T2, mouse TREM2 on BWZ cells (assay: FACS, BWZ cells).

Binding result, no binding:
B1
B2
B3
B4
B5
B6
B7
B8
B9
B10
B11
B12
B13
B14
B15
B16
B17
